Measurements as given in US20240327535A1 (EISAI R AND D MANAGEMENT, published 2024).
Where two headings read alike, the source gives them in different places.

B1: AB212 (antibody, human IgG1, kappa, V domains shown)
VH: QVQLVQSGAEVKKPGSSVKVSCKASGGTFSNYWIHWVRQAPGQGLEWMGGTYRSHSDTNYNQKFKSRVTITADKSTSTAYMELSSLRSEDTAVYYCARGAIYHGYDVIENWGQGTLVTVSS
VL: DIQMTQSPSSLSASVGDRVTITCRASQSISSYLNWYQQKPGKAPKLLIYATSNLQIGVPSRFSGSGSGTDFTLTISSLQPEDFATYYCQQFRRLPWTFGQGTKLEIKR
notes: IgG1 kappa
B2: AB215-ADL1-D2-02 (antibody, human IgG1, kappa, V domains shown)
VH: QVQLVQSGAEVKKPGSSVKVSCKASGGTFTNYWIHWVRQAPGQGLEWMGGTYRSHSTTYYNQKFKSRVTITADKSTSTAYMELSSLRSEDTAVYYCARGAVYHGYDVIDNWGQGTLVTVSS
VL: DIQMTQSPSSLSASVGDRVTITCRASQSISSYLNWYQQKPGKAPKLLIYATSNLQIGVPSRFSGSGSGTDFTLTISSLQPEDFATYYCQQYRRIPWTFGQGTKLEIKR
modifications: ADL1-D2 linker-payload on cysteine residues of the antibody, DAR 3.96
B3: AB216 (antibody, human IgG1, kappa, V domains shown)
VH: QVQLVQSGAEVKKPGSSVKVSCKASGGTFSNYWIHWVRQAPGQGLEWMGATYRIQSDTYYNQKYKSRVTITADKSTSTAYMELSSLRSEDTAVYYCARGAVYHGYDVIDNWGQGTLVTVSS
VL: DIQMTQSPSSLSASVGDRVTITCRASQSISSYINWYQQKPGKAPKLLIYATSNLQIGVPSRFSGSGSGTDFTLTISSLQPEDFATYYCQQYRRLPWSFGQGTKLEIKR
notes: IgG1 kappa
B4: AB216-ADL1-D2-02 (antibody, human IgG1, kappa, V domains shown)
VH: QVQLVQSGAEVKKPGSSVKVSCKASGGTFSNYWIHWVRQAPGQGLEWMGATYRIQSDTYYNQKYKSRVTITADKSTSTAYMELSSLRSEDTAVYYCARGAVYHGYDVIDNWGQGTLVTVSS
VL: DIQMTQSPSSLSASVGDRVTITCRASQSISSYINWYQQKPGKAPKLLIYATSNLQIGVPSRFSGSGSGTDFTLTISSLQPEDFATYYCQQYRRLPWSFGQGTKLEIKR
modifications: ADL1-D2 linker-payload on cysteine residues of the antibody, DAR 3.8
B5: AB217-ADL1-D2-02 (antibody, human IgG1, kappa, V domains shown)
VH: QVQLVQSGAEVKKPGSSVKVSCKASGGTFTNYWIHWVRQAPGQGLEWMGATYRSHSDTYYAQKYKSRVTITADKSTSTAYMELSSLRSEDTAVYYCARGAVYHGYDVIDNWGQGTLVTVSS
VL: DIQMTQSPSSLSASVGDRVTITCRASQSISSYINWYQQKPGKAPKLLIYATSNLQSGVPSRFSGSGSGTDFTLTISSLQPEDFATYYCQQYRRIPWTFGQGTKLEIKR
modifications: ADL1-D2 linker-payload on cysteine residues of the antibody, DAR 3.7
B6: AB218 (antibody, human IgG1, kappa, V domains shown)
VH: QVQLVQSGAEVKKPGSSVKVSCKASGGTFSNYWIHWVRQAPGQGLEWMGATYRSQSTTYYNQKFKSRVTITADKSTSTAYMELSSLRSEDTAVYYCARGAVYHGYDVIDNWGQGTLVTVSS
VL: DIQMTQSPSSLSASVGDRVTITCRASQSISSYLNWYQQKPGKAPKLLIYATSNLQIGVPSRFSGSGSGTDFTLTISSLQPEDFATYYCQQFRRLPWTFGQGTKLEIKR
notes: IgG1 kappa
B7: AB214-ADL1-D2-02 (antibody, human IgG1, kappa, V domains shown)
VH: QVQLVQSGAEVKKPGSSVKVSCKASGGTFSNYWIHWVRQAPGQGLEWMGATYRSQSDTYYNQKYKSRVTITADKSTSTAYMELSSLRSEDTAVYYCARGAVYHGYDVIDNWGQGTLVTVSS
VL: DIQMTQSPSSLSASVGDRVTITCRASQSISSYLNWYQQKPGKAPKLLIYATSNLQIGVPSRFSGSGSGTDFTLTISSLQPEDFATYYCQQYRRIPWTFGQGTKLEIKR
modifications: ADL1-D2 linker-payload on cysteine residues of the antibody, DAR 4.12
B8: AB200-(2Vk30)_R2-VH-v37 (Fab, V domains shown)
VH: QVQLVQSGAEVKKPGSSVKVSCKASGGTFSNYWIHWVRQAPGQGLEWMGATYRSQSDTYYNQKYKSRVTITADKSTSTAYMELSSLRSEDTAVYYCARGAVYHGYDVIDNWGQGTLVTVSS
VL: DIQMTQSPSSLSASVGDRVTITCRASQSISSYLNWYQQKPGKAPKLLIYATSNLQIGVPSRFSGSGSGTDFTLTISSLQPEDFATYYCQQYRRIPWTFGQGTKLEIKR
notes: also called AB200_VH2-37_VK2-30
B9: AB200-(2Vk31)_R2-VH-v3 (Fab, V domains shown)
VH: QVQLVQSGAEVKKPGSSVKVSCKASGGTFTNYWIHWVRQAPGQGLEWMGGTYRSHSTTYYNQKFKSRVTITADKSTSTAYMELSSLRSEDTAVYYCARGAVYHGYDVIDNWGQGTLVTVSS
VL: DIQMTQSPSSLSASVGDRVTITCRASQSISSYLNWYQQKPGKAPKLLIYATSNLQIGVPSRFSGSGSGTDFTLTISSLQPEDFATYYCQQFRRLPWTFGQGTKLEIKR
notes: also called AB200_VH2-03_VK2-31
B10: AB200-(2Vk31)_R2-VH-v20 (Fab, V domains shown)
VH: QVQLVQSGAEVKKPGSSVKVSCKASGGTFSNYWIHWVRQAPGQGLEWMGGTYRSHSDTNYNQKFKSRVTITADKSTSTAYMELSSLRSEDTAVYYCARGAIYHGYDVIENWGQGTLVTVSS
VL: DIQMTQSPSSLSASVGDRVTITCRASQSISSYLNWYQQKPGKAPKLLIYATSNLQIGVPSRFSGSGSGTDFTLTISSLQPEDFATYYCQQFRRLPWTFGQGTKLEIKR
notes: also called AB200_VH2-20_VK2-31
B11: AB200-(2Vk31)_R2-VH-v27 (Fab, V domains shown)
VH: QVQLVQSGAEVKKPGSSVKVSCKASGGTFSNYWIHWVRQAPGQGLEWMGATYRSQSTTYYNQKFKSRVTITADKSTSTAYMELSSLRSEDTAVYYCARGAVYHGYDVIDNWGQGTLVTVSS
VL: DIQMTQSPSSLSASVGDRVTITCRASQSISSYLNWYQQKPGKAPKLLIYATSNLQIGVPSRFSGSGSGTDFTLTISSLQPEDFATYYCQQFRRLPWTFGQGTKLEIKR
notes: also called AB200_VH2-27_VK2-31
B12: AB200-(2Vk35)_R2-VH-v6 (Fab, V domains shown)
VH: QVQLVQSGAEVKKPGSSVKVSCKASGGTFTNYWIHWVRQAPGQGLEWMGATYRSHSDTYYAQKYKSRVTITADKSTSTAYMELSSLRSEDTAVYYCARGAVYHGYDVIDNWGQGTLVTVSS
VL: DIQMTQSPSSLSASVGDRVTITCRASQSISSYINWYQQKPGKAPKLLIYATSNLQSGVPSRFSGSGSGTDFTLTISSLQPEDFATYYCQQYRRIPWTFGQGTKLEIKR
notes: also called AB200_VH2-06_VK2-35
B13: AB200 (antibody, human IgG1, kappa, V domains shown)
VH: QVQLVQSGAEVKKPGSSVKVSCKASGGTFSNYWMHWVRQAPGQGLEWMGATYRGHSDTYYNQKFKGRVTITADKSTSTAYMELSSLRSEDTAVYYCARGAIYDGYDVLDNWGQGTLVTVSS
VL: DIQMTQSPSSLSASVGDRVTITCSASQDISNYLNWYQQKPGKAPKLLIYYTSNLHSGVPSRFSGSGSGTDFTLTISSLQPEDFATYYCQQYRKLPWTFGQGTKLEIKR
notes: IgG1 kappa

Columns and labels:
[1] = target: T1, human BCMA on NCI-H929, OPM2 and Raji cells (human, UniProt Q02223 1-184); experiment: flow cytometry, NCI-H929 cells
T1 construct: endogenous BCMA of human cell lines; also called TNFRSF17; CD269
T1 chain: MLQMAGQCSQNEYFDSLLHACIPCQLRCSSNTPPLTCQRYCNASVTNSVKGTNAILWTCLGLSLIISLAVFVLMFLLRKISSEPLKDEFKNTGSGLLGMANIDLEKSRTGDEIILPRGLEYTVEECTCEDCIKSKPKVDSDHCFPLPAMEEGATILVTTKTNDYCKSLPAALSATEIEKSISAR

[2] = target: T1, human BCMA on NCI-H929, OPM2 and Raji …; experiment: flow cytometry, OPM2 cells
[3] = target: T1, human BCMA on NCI-H929, OPM2 and Raji …; experiment: flow cytometry, Raji cells
[4] = target: T1, human BCMA on NCI-H929, OPM2 and Raji …; experiment: flow cytometry on NCI-H929 cells (BCMA high), fluorescent anti-human IgG1 secondary antibody, MFI against test article concentration
[5] = target: T1, human BCMA on NCI-H929, OPM2 and Raji …; experiment: flow cytometry, NCI-H929 cells
[6] = target: T1, human BCMA on NCI-H929, OPM2 and Raji …; experiment: cell-based or functional assay
[7] = target: T2, extracellular domain of human BCMA (human, UniProt Q02223 1-54); experiment: Octet BLI; Fab 200 nM
T2 construct: amine-linked to Octet AR2G tips; also called hsBCMA; BCMA (human)
T2 sequence: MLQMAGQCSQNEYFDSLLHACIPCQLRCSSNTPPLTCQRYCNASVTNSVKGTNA

[8] = target: T3, extracellular domain of rhesus monkey BCMA (rhesus monkey, UniProt F7FFA0 1-53); experiment: Octet BLI; Fab 200 nM
T3 construct: extracellular domain; also called RhBCMA
T3 sequence (F7FFA0 entry or part of it): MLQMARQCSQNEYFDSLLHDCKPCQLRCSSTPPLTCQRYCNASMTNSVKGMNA

[9] = target: T2, extracellular domain of human BCMA; experiment: Octet BLI; Fab 200 nM; remark: listed apart in the source
[10] = target: T3, extracellular domain of rhesus monkey …; experiment: Octet BLI; Fab 200 nM; remark: listed apart in the source
[11] = target: T2, extracellular domain of human BCMA; experiment: Octet BLI; Fab 200 nM; remark: listed apart in the source
[12] = target: T3, extracellular domain of rhesus monkey …; experiment: Octet BLI; Fab 200 nM; remark: listed apart in the source
[13] = target: T2, extracellular domain of human BCMA; experiment: Octet BLI; Fab 200 nM; remark: listed apart in the source
[14] = target: T3, extracellular domain of rhesus monkey …; experiment: Octet BLI; Fab 200 nM; remark: listed apart in the source

Row | Binder | Kd [1] [nM] | Kd [2] [nM] | Kd [3] [nM] | EC50 (read off the curve) [4] [nM] | Kd [5] [nM] | GI50 (nM) OPM2.1, cell viability [6] [nM] | LD50 (nM) OPM2.1, cell viability [6] [nM] | Kd [9] [nM] | Kd [10] [nM] | other results
1 | B1 | 9.68 | 4.33 | 16 | – | – | – | – | – | – | –
2 | B2 | – | – | – | ~1 | 1.3 | 4.04 | 73.7 | – | – | –
3 | B3 | 3.05 | 2.27 | 6.43 | – | – | – | – | – | – | –
4 | B4 | – | – | – | ~0.7 | 0.836 | 1.56 | 14 | – | – | –
5 | B5 | – | – | – | ~0.4 | 0.366 | 2.17 | 16.3 | – | – | –
6 | B6 | 0.987 | 0.687 | 2.15 | – | – | – | – | – | – | –
7 | B7 | – | – | – | ~1 | 1.02 | 1.54 | 25.1 | – | – | –
8 | B8 | – | – | – | – | – | – | – | 1.14 | 6.33 | Kd [7]: 0.81 nM; Kd [8]: 6.05 nM
9 | B9 | – | – | – | – | – | – | – | 2.7 | 5.03 | Kd [11]: 2.55 nM; Kd [12]: 5.73 nM
10 | B10 | – | – | – | – | – | – | – | 38.6 | 79.3 | Kd [11]: 42 nM; Kd [12]: 93.8 nM
11 | B11 | – | – | – | – | – | – | – | 6.43 | 13.9 | Kd [11]: 7.13 nM; Kd [12]: 15.3 nM
12 | B12 | – | – | – | – | – | – | – | 1.66 | 9.6 | Kd [13]: 1.29 nM; Kd [14]: 9.36 nM
13 | B13 | 50.5 | 10 | 14 | – | – | – | – | – | – | –
